The assay concerns the target T1, human ADAMTS5 (human, UniProt Q9UNA0 262-622, limits assumed).
T1 construct: Octet and ELISA used 'recombinant human ADAMTS5'; also called recombinant human ADAMTS5; ADAMTS5 (R&D Systems 2198-AD)
T1 sequence: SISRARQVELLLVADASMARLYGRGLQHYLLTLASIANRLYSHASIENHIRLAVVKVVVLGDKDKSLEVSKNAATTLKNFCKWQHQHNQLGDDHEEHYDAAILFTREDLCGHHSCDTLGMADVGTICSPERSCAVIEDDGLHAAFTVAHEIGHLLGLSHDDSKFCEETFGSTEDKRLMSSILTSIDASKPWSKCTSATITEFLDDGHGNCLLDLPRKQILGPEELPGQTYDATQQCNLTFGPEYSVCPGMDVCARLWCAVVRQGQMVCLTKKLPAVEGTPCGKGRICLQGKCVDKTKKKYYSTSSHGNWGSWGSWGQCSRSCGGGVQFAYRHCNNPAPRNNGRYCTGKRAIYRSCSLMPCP
As to the kind of experiment: Biacore, mAb from culture supernatant captured on anti-human IgG, ADAMTS5 (R&D 2198-AD) at 64 nM, 1:1 fit. As for the experimental part: Anti-human IgG (Biacore™, BR-1008-39) was immobilized on a CM5 chip by primary amine coupling. This surface was then used to capture the humanized antibodies, ADAMTS5 (R&D Systems 2198-AD) was then passed over the captured antibody at a single concentration of 64 nM, regeneration was carried out using 100 mM phosphoric acid followed by 3M MgCl₂. The binding curves were double referenced with buffer injection (i.e. 0 nM) and the data was fitted to the T100 analysis software using the 1:1 model. The run was carried out at 25° C., using HBS-EP as the running buffer. All antibodies were captured from tissue culture supernatants unless specified.

B1: BPC1644 (antibody, human IgG1, kappa, V domains shown)
VH: EVQLVESGGGLVQPGGSLRLSCAASGFTSSDAWMDWVRQAPGKGLEWVAEIRNKANNHARHYAESVKGRFTISRDNAKNSLYLQMNSLRAEDTAVYYCTRTYYYGSSYGYCDVWGQGTLVTVSS
VL: DIQMTQSPSSLSASVGDRVTITCRTSENIYSYLAWYQQKPGKAPKLLVYNAKTLAEGVPSRFSGSGSGTDFTLTISSLQPEDFATYYCQHHYGTPWTFGQGTKLEIKR
notes: Humanized, human gamma 1 / kappa; also called 7B4 H3L1
The Kd is the free concentration of one partner at which half of the binding sites on the other are occupied at equilibrium, for simple one-to-one binding. Broadly, the koff is the rate constant with which the complex falls apart. Read a low koff as a long-lived complex. The term kon denotes the rate constant with which the complex forms. As to B1, the Kd came out at 1.05 nM, the off-rate constant (koff) is 0.00157 s⁻¹ and the kon came to 1.49e+06 M⁻¹ s⁻¹.

B2: BPC1638 (antibody, human IgG1, kappa, V domains shown)
VH: EVQLVESGGGLVQPGGSLRLSCAASGFTSSDAWMDWVRQAPGKGLEWVAEIRNKANNHARHYAESVKGRFTISRDDAKNSLYLQMNSLRAEDTAVYYCTRTYYYGSSYGYCDVWGQGTLVTVSS
VL: DIQMTQSPSSLSASVGDRVTITCRTSENIYSYLAWYQQKPGKAPKLLIYNAKTLAEGVPSRFSGSGSGTDFTLTISSLQPEDFATYYCQHHYGTPWTFGQGTKLEIKR
notes: Humanized, human gamma 1 / kappa; also called 7B4 H4L0
On to B2, for which binding was put at a Kd of 0.95 nM, the off-rate (koff) came to 0.000831 s⁻¹ and the kon was found to be 875000 M⁻¹ s⁻¹.

B3: BPC1647 (antibody, human IgG1, kappa, V domains shown)
VH: EVQLVESGGGLVQPGGSLRLSCAASGFTSSDAWMDWVRQAPGKGLEWVAEIRNKANNHARHYAESVKGRFTISRDDAKNSVYLQMNSLRAEDTAVYYCTRTYYYGSSYGYCDVWGQGTLVTVSS
VL: DIQMTQSPSSLSASVGDRVTITCRTSENIYSYLAWYQQKPGKAPKLLVYNAKTLAEGVPSRFSGSGSGTDFTLTISSLQPEDFATYYCQHHYGTPWTFGQGTKLEIKR
notes: Humanized, human gamma 1 / kappa; also called 7B4 H6L1
B3 had a Kd of 0.978 nM, a koff of 0.00145 s⁻¹ and a kon of 1.48e+06 M⁻¹ s⁻¹.

B4: BPC1640 (antibody, human IgG1, kappa, V domains shown)
VH: EVQLVESGGGLVQPGGSLRLSCAASGFTSSDAWMDWVRQAPGKGLEWVAEIRNKANNHARHYAESVKGRFTISRDDAKNSVYLQMNSLRAEDTAVYYCTRTYYYGSSYGYCDVWGQGTLVTVSS
VL: DIQMTQSPSSLSASVGDRVTITCRTSENIYSYLAWYQQKPGKAPKLLIYNAKTLAEGVPSRFSGSGSGTDFTLTISSLQPEDFATYYCQHHYGTPWTFGQGTKLEIKR
notes: Humanized, human gamma 1 / kappa; also called 7B4 H6L0
Molecule B4 displayed a Kd of 1.08 nM, a koff of 0.000849 s⁻¹ and a kon of 787000 M⁻¹ s⁻¹.

B5: BPC1641 (antibody, human IgG1, kappa, V domains shown)
VH: EVQLVESGGGLVQPGGSLRLSCAASGFTFSDAWMDWVRQAPGKGLEWVAEIRNKANNHARHYAESVKGRFTISRDNAKNSLYLQMNSLRAEDTAVYYCARTYYYGSSYGYCDVWGQGTLVTVSS
VL: DIQMTQSPSSLSASVGDRVTITCRTSENIYSYLAWYQQKPGKAPKLLVYNAKTLAEGVPSRFSGSGSGTDFTLTISSLQPEDFATYYCQHHYGTPWTFGQGTKLEIKR
notes: Humanized, human gamma 1 / kappa; also called 7B4 H0L1
B5 yielded a Kd of 1.32 nM, a koff of 0.000945 s⁻¹ and a kon of 714000 M⁻¹ s⁻¹.

B6: BPC1637 (antibody, human IgG1, kappa, V domains shown)
VH: EVQLVESGGGLVQPGGSLRLSCAASGFTSSDAWMDWVRQAPGKGLEWVAEIRNKANNHARHYAESVKGRFTISRDNAKNSLYLQMNSLRAEDTAVYYCTRTYYYGSSYGYCDVWGQGTLVTVSS
VL: DIQMTQSPSSLSASVGDRVTITCRTSENIYSYLAWYQQKPGKAPKLLIYNAKTLAEGVPSRFSGSGSGTDFTLTISSLQPEDFATYYCQHHYGTPWTFGQGTKLEIKR
notes: Humanized, human gamma 1 / kappa; also called 7B4 H3L0
In the case of B6, the Kd amounted to 0.86 nM, the dissociation rate constant (koff) is 0.000963 s⁻¹ and the on-rate constant (kon) is 1.12e+06 M⁻¹ s⁻¹.

B7: BPC1645 (antibody, human IgG1, kappa, V domains shown)
VH: EVQLVESGGGLVQPGGSLRLSCAASGFTSSDAWMDWVRQAPGKGLEWVAEIRNKANNHARHYAESVKGRFTISRDDAKNSLYLQMNSLRAEDTAVYYCTRTYYYGSSYGYCDVWGQGTLVTVSS
VL: DIQMTQSPSSLSASVGDRVTITCRTSENIYSYLAWYQQKPGKAPKLLVYNAKTLAEGVPSRFSGSGSGTDFTLTISSLQPEDFATYYCQHHYGTPWTFGQGTKLEIKR
notes: Humanized, human gamma 1 / kappa; also called 7B4 H4L1
Consider B7, for which the Kd was 1.04 nM, the koff worked out at 0.00116 s⁻¹ and the kon stood at 1.12e+06 M⁻¹ s⁻¹.

B8: BPC1639 (antibody, human IgG1, kappa, V domains shown)
VH: EVQLVESGGGLVQPGGSLRLSCAASGFTSSDAWMDWVRQAPGKGLEWVAEIRNKANNHARHYAESVKGRFTISRDNAKNSVYLQMNSLRAEDTAVYYCTRTYYYGSSYGYCDVWGQGTLVTVSS
VL: DIQMTQSPSSLSASVGDRVTITCRTSENIYSYLAWYQQKPGKAPKLLIYNAKTLAEGVPSRFSGSGSGTDFTLTISSLQPEDFATYYCQHHYGTPWTFGQGTKLEIKR
notes: Humanized, human gamma 1 / kappa; also called 7B4 H5L0
Molecule B8 gave an equilibrium dissociation constant (Kd) of 0.964 nM, a koff of 0.000894 s⁻¹ and a kon of 927000 M⁻¹ s⁻¹.

B9: BPC1646 (antibody, human IgG1, kappa, V domains shown)
VH: EVQLVESGGGLVQPGGSLRLSCAASGFTSSDAWMDWVRQAPGKGLEWVAEIRNKANNHARHYAESVKGRFTISRDNAKNSVYLQMNSLRAEDTAVYYCTRTYYYGSSYGYCDVWGQGTLVTVSS
VL: DIQMTQSPSSLSASVGDRVTITCRTSENIYSYLAWYQQKPGKAPKLLVYNAKTLAEGVPSRFSGSGSGTDFTLTISSLQPEDFATYYCQHHYGTPWTFGQGTKLEIKR
notes: Humanized, human gamma 1 / kappa; also called 7B4 H5L1
Molecule B9 came in with an equilibrium dissociation constant (Kd) of 1.03 nM, an off-rate constant (koff) of 0.00184 s⁻¹ and a kon of 1.79e+06 M⁻¹ s⁻¹.

B10: BPC1643 (antibody, human IgG1, kappa, V domains shown)
VH: EVQLVESGGGLVQPGGSLRLSCAASGFTSSDAWMDWVRQAPGKGLEWVAEIRNKANNHARHYAESVKGRFTISRDNAKNSLYLQMNSLRAEDTAVYYCARTYYYGSSYGYCDVWGQGTLVTVSS
VL: DIQMTQSPSSLSASVGDRVTITCRTSENIYSYLAWYQQKPGKAPKLLVYNAKTLAEGVPSRFSGSGSGTDFTLTISSLQPEDFATYYCQHHYGTPWTFGQGTKLEIKR
notes: Humanized, human gamma 1 / kappa; also called 7B4 H2L1
In turn, B10 displayed an equilibrium dissociation constant (Kd) of 1.05 nM, a koff of 0.00143 s⁻¹ and a kon of 1.36e+06 M⁻¹ s⁻¹.

B11: BPC1635 (antibody, human IgG1, kappa, V domains shown)
VH: EVQLVESGGGLVQPGGSLRLSCAASGFTFSDAWMDWVRQAPGKGLEWVAEIRNKANNHARHYAESVKGRFTISRDNAKNSLYLQMNSLRAEDTAVYYCTRTYYYGSSYGYCDVWGQGTLVTVSS
VL: DIQMTQSPSSLSASVGDRVTITCRTSENIYSYLAWYQQKPGKAPKLLIYNAKTLAEGVPSRFSGSGSGTDFTLTISSLQPEDFATYYCQHHYGTPWTFGQGTKLEIKR
notes: Humanized, human gamma 1 / kappa; also called 7B4 H1L0
In the case of B11, the affinity, expressed as Kd, was 1.17 nM; the koff was determined as 0.000826 s⁻¹; the on-rate constant (kon) was found to be 704000 M⁻¹ s⁻¹.

B12: BPC1636 (antibody, human IgG1, kappa, V domains shown)
VH: EVQLVESGGGLVQPGGSLRLSCAASGFTSSDAWMDWVRQAPGKGLEWVAEIRNKANNHARHYAESVKGRFTISRDNAKNSLYLQMNSLRAEDTAVYYCARTYYYGSSYGYCDVWGQGTLVTVSS
VL: DIQMTQSPSSLSASVGDRVTITCRTSENIYSYLAWYQQKPGKAPKLLIYNAKTLAEGVPSRFSGSGSGTDFTLTISSLQPEDFATYYCQHHYGTPWTFGQGTKLEIKR
notes: Humanized, human gamma 1 / kappa; also called 7B4 H2L0
With B12, the equilibrium dissociation constant (Kd) is 0.836 nM, the off-rate (koff) was 0.000896 s⁻¹ and the kon was found to be 1.07e+06 M⁻¹ s⁻¹.

B13: BPC1642 (antibody, human IgG1, kappa, V domains shown)
VH: EVQLVESGGGLVQPGGSLRLSCAASGFTFSDAWMDWVRQAPGKGLEWVAEIRNKANNHARHYAESVKGRFTISRDNAKNSLYLQMNSLRAEDTAVYYCTRTYYYGSSYGYCDVWGQGTLVTVSS
VL: DIQMTQSPSSLSASVGDRVTITCRTSENIYSYLAWYQQKPGKAPKLLVYNAKTLAEGVPSRFSGSGSGTDFTLTISSLQPEDFATYYCQHHYGTPWTFGQGTKLEIKR
notes: Humanized, human gamma 1 / kappa; also called 7B4 H1L1
B13 registered a Kd of 1.36 nM, a koff of 0.00121 s⁻¹ and an association rate constant (kon) of 887000 M⁻¹ s⁻¹.

B14: BPC1656 (antibody, human IgG1, kappa, V domains shown)
VH: EVQLLESGGGLVQPGGSLRLSCAASGFTFSDAWMDWVRQAPGKGLEWVSEIRHKANDHAIFYDESVKGRFTISRDNSKNTLYLQMNSLRAEDTAVYYCTSPFAYWGQGTLVTVSS
VL: DIQMTQSPSSLSASVGDRVTITCKASQSVGTTIVWYQQKPGKAPKLLIYSASNRHTGVPSRFSGSGSGTDFTLTISSLQPEDFATYYCQQYTSYPFTFGQGTKLEIKR
notes: Humanized, human gamma 1 / kappa; also called 12F4 H1L0
As for B14, the affinity, expressed as Kd, was 0.624 nM; the koff turned out to be 0.000395 s⁻¹; the kon is 633000 M⁻¹ s⁻¹.

B15: BPC1658 (antibody, human IgG1, kappa, V domains shown)
VH: EVQLLESGGGLVQPGGSLRLSCAASGFTFSDAWMDWVRQAPGKGLEWVAEIRHKANDHAIFYDESVKGRFTISRDNSKNTVYLQMNSLRAEDTAVYYCTSPFAYWGQGTLVTVSS
VL: DIQMTQSPSSLSASVGDRVTITCKASQSVGTTIVWYQQKPGKAPKLLIYSASNRHTGVPSRFSGSGSGTDFTLTISSLQPEDFATYYCQQYTSYPFTFGQGTKLEIKR
notes: Humanized, human gamma 1 / kappa; also called 12F4 H3L0
In turn, B15 gave a dissociation constant Kd of 0.312 nM, an off-rate (koff) of 0.00014 s⁻¹ and an on-rate constant (kon) of 448000 M⁻¹ s⁻¹.

B16: BPC1657 (antibody, human IgG1, kappa, V domains shown)
VH: EVQLLESGGGLVQPGGSLRLSCAASGFTFSDAWMDWVRQAPGKGLEWVSEIRHKANDHAIFYDESVKGRFTISRDDSKNTLYLQMNSLRAEDTAVYYCTSPFAYWGQGTLVTVSS
VL: DIQMTQSPSSLSASVGDRVTITCKASQSVGTTIVWYQQKPGKAPKLLIYSASNRHTGVPSRFSGSGSGTDFTLTISSLQPEDFATYYCQQYTSYPFTFGQGTKLEIKR
notes: Humanized, human gamma 1 / kappa; also called 12F4 H2L0
Consider B16, for which binding was put at a Kd of 0.129 nM, the dissociation rate constant (koff) came to 7.54e-05 s⁻¹ and the on-rate (kon) amounted to 585000 M⁻¹ s⁻¹.
